Patent publication US20210188958A1 (JILIN UNIVERSITY, published 2021)

Experiments:
Experiment in all cases: indirect ELISA, peptide coated at 0.25 ug/well
[1] = target: T1, synthetic peptide W4 (Trichinella spiralis)
T1 construct: also called Ts-WN10-W4
T1 peptide: TVSKCFEEVEEPLII

[2] = target: T2, synthetic peptide W5 (Trichinella spiralis)
T2 construct: also called Ts-WN10-W5
T2 peptide: QILGETTHYGRNDP

[3] = target: T3, synthetic peptide W6 (Trichinella spiralis)
T3 construct: also called Ts-WN10-W6
T3 peptide: ALFSSDSKEQSGVLH

[4] = target: T4, synthetic peptide W7 (Trichinella spiralis)
T4 construct: also called Ts-WN10-W7
T4 peptide: HKLVELEESSTMGIL

[5] = target: T5, synthetic peptide W8 (Trichinella spiralis)
T5 construct: also called Ts-WN10-W8
T5 peptide: CTLEYRHRTPSTATV

[6] = target: T6, synthetic peptide W9 (Trichinella spiralis)
T6 construct: also called Ts-WN10-W9
T6 peptide: EEQVVSQRSQMLGGT

[7] = target: T7, synthetic peptide W10 (Trichinella spiralis)
T7 construct: also called Ts-WN10-W10
T7 peptide: IFESDKKKSSGTYLL

[8] = target: T8, synthetic peptide W11 (Trichinella spiralis)
T8 construct: also called Ts-WN10-W11
T8 peptide: KETECGIKEKAFNSY

[9] = target: T9, synthetic peptide W12 (Trichinella spiralis)
T9 construct: also called Ts-WN10-W12
T9 peptide: EKAFNSYEDVYKNCS

[10] = target: T10, synthetic peptide W13 (Trichinella spiralis)
T10 construct: also called Ts-WN10-W13
T10 peptide: DVYKNCSGSGDSKVC

[11] = target: T11, synthetic peptide W14 (Trichinella spiralis)
T11 construct: also called Ts-WN10-W14
T11 peptide: VEYKYFDPTKSTVEC

[12] = target: T12, synthetic peptide W1 (Trichinella spiralis)
T12 construct: also called Ts-WN10-W1
T12 peptide: ALFSSDLKQESGVFH

[13] = target: T13, synthetic peptide W2 (Trichinella spiralis)
T13 construct: also called Ts-WN10-W2
T13 peptide: VNCQGEGRRKHCTME

[14] = target: T14, synthetic peptide W3 (Trichinella spiralis)
T14 construct: also called Ts-WN10-W3
T14 peptide: TMEYTHRNPSKATVS

B1: WN10-1H9-Ab (antibody, V domains shown)
VH: QVQLQQPGSELVRPGASVKLSCKASGYTFTSYWMHWVKQRPGQGLEWIGNISPGSGNTNYDEKFKTKATLTVDTSSSTAYMQLSSLTSEDSAVYYCTRHGTVDYWGQGTTVTVSS
VL: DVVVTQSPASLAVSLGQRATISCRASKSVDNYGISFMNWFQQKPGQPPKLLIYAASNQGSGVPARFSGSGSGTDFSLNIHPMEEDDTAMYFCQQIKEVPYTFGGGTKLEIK
notes: Mouse monoclonal antibody; It was used as hybridoma supernatant in the ELISAs; also called 1H9 monoclonal antibody; monoclonal antibody generated by hybridoma cell line WN10-1H9 (CGMCC No. 18316)
OD 450 nm [1]: 0.171 OD 450 nm | OD 450 nm [2]: 0.286 OD 450 nm | OD 450 nm [3]: 0.127 OD 450 nm | OD 450 nm [4]: 0.162 OD 450 nm | OD 450 nm [5]: 0.152 OD 450 nm | OD 450 nm [6]: 0.144 OD 450 nm | OD 450 nm [7]: 0.161 OD 450 nm | OD 450 nm [8]: 0.147 OD 450 nm | OD 450 nm [9]: 0.16 OD 450 nm | OD 450 nm [10]: 0.166 OD 450 nm | OD 450 nm [11]: 0.158 OD 450 nm | OD 450 nm [12]: 0.0733 OD 450 nm | OD 450 nm [13]: 1.15 OD 450 nm | OD 450 nm [14]: 0.149 OD 450 nm
